The source of these data is patent US20240294593A1 (Genentech, published 2024).

A word on the Kd: it is a measure of binding affinity in units of concentration. Higher therefore signals a looser complex. As a reminder, the koff is the rate constant with which the complex falls apart. A lower koff goes with a long-lived complex. A word on the kon: it is a measure of how fast the partners come together. Read a low kon as slower complex formation.

In this experiment the target is T1, human PD-1-His (human, UniProt Q15116 25-167, limits assumed).
T1 construct: Antigen of the Octet assays; not shown: His tag
Kind of experiment: Octet.

T1 sequence (Q15116 25-167 limits assumed): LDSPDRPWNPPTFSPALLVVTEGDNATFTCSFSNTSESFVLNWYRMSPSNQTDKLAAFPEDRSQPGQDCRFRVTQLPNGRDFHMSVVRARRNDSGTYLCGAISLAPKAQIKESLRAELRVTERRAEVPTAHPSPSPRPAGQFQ

B1: H1.147_L1 (antibody, V domains shown)
VH: EVQLVESGGGLVQPGGSLRLSCAASGFTFSSFGMHWVRQAPGKGLEWVSYISSGSSIIYYADSVKGRFTISRDNAKNSLYLQMNSLRAEDTAVYYCARGGRLQWSPDYWGQGTLVTVSS
VL: DIVMTQSPDSLAVSLGERATINCKSSQSLLNSGNQKNYLTWYQQKPGQPPKLLIYWASTRESGVPDRFTGSGSGTDFTLTISSLQAEDVAVYYCQNDYSYPFTFGSGTKLEIKR
notes: also called VH-V111Q; Kabat 99
In the case of B1, the Kd stood at 92.3 nM, the koff turned out to be 0.013 s⁻¹ and the kon turned out to be 140000 M⁻¹ s⁻¹.

B2: H1.155_L1 (antibody, V domains shown)
VH: EVQLVESGGGLVQPGGSLRLSCAASGFTFSSFGMHWVRQAPGKGLEWVSYISSGSSIIYYADSVKGRFTISRDNAKNSLYLQMNSLRAEDTAVYYCARGGRLVHSPDYWGQGTLVTVSS
VL: DIVMTQSPDSLAVSLGERATINCKSSQSLLNSGNQKNYLTWYQQKPGQPPKLLIYWASTRESGVPDRFTGSGSGTDFTLTISSLQAEDVAVYYCQNDYSYPFTFGSGTKLEIKR
notes: also called VH-W112H; Kabat 100; copies: 2 + 2
Consider B2, for which the binding result is reported as “no binding”.

B3: H1.166_L1 (antibody, V domains shown)
VH: EVQLVESGGGLVQPGGSLRLSCAASGFTFSSFGMHWVRQAPGKGLEWVSYISSGSSIIYYADSVKGRFTISRDNAKNSLYLQMNSLRAEDTAVYYCARGGRLVWDPDYWGQGTLVTVSS
VL: DIVMTQSPDSLAVSLGERATINCKSSQSLLNSGNQKNYLTWYQQKPGQPPKLLIYWASTRESGVPDRFTGSGSGTDFTLTISSLQAEDVAVYYCQNDYSYPFTFGSGTKLEIKR
notes: also called VH-S113D; Kabat 100a
As to B3, the Kd worked out at 189 nM, the koff was found to be 0.0457 s⁻¹ and the kon is 242000 M⁻¹ s⁻¹.

B4: H1.163_L1 (antibody, V domains shown)
VH: EVQLVESGGGLVQPGGSLRLSCAASGFTFSSFGMHWVRQAPGKGLEWVSYISSGSSIIYYADSVKGRFTISRDNAKNSLYLQMNSLRAEDTAVYYCARGGRLVWGPDYWGQGTLVTVSS
VL: DIVMTQSPDSLAVSLGERATINCKSSQSLLNSGNQKNYLTWYQQKPGQPPKLLIYWASTRESGVPDRFTGSGSGTDFTLTISSLQAEDVAVYYCQNDYSYPFTFGSGTKLEIKR
notes: also called VH-S113G; Kabat 100a
Turning to B4, binding was characterised by a dissociation constant (Kd) of 92 nM, the koff worked out at 0.0113 s⁻¹ and the kon was determined as 123000 M⁻¹ s⁻¹.

B5: H1.164_L1 (antibody, V domains shown)
VH: EVQLVESGGGLVQPGGSLRLSCAASGFTFSSFGMHWVRQAPGKGLEWVSYISSGSSIIYYADSVKGRFTISRDNAKNSLYLQMNSLRAEDTAVYYCARGGRLVWVPDYWGQGTLVTVSS
VL: DIVMTQSPDSLAVSLGERATINCKSSQSLLNSGNQKNYLTWYQQKPGQPPKLLIYWASTRESGVPDRFTGSGSGTDFTLTISSLQAEDVAVYYCQNDYSYPFTFGSGTKLEIKR
notes: also called VH-S113V; Kabat 100a
B5 returned a Kd of 280 nM, a koff of 0.0166 s⁻¹ and a kon of 59400 M⁻¹ s⁻¹.

B6: H1.161_L1 (antibody, V domains shown)
VH: EVQLVESGGGLVQPGGSLRLSCAASGFTFSSFGMHWVRQAPGKGLEWVSYISSGSSIIYYADSVKGRFTISRDNAKNSLYLQMNSLRAEDTAVYYCARGGRLVWAPDYWGQGTLVTVSS
VL: DIVMTQSPDSLAVSLGERATINCKSSQSLLNSGNQKNYLTWYQQKPGQPPKLLIYWASTRESGVPDRFTGSGSGTDFTLTISSLQAEDVAVYYCQNDYSYPFTFGSGTKLEIKR
notes: also called VH-S113A; Kabat 100a
In turn, B6 returned a Kd of 47.5 nM, a koff of 0.00755 s⁻¹ and a kon of 159000 M⁻¹ s⁻¹.

B7: H1.148_L1 (antibody, V domains shown)
VH: EVQLVESGGGLVQPGGSLRLSCAASGFTFSSFGMHWVRQAPGKGLEWVSYISSGSSIIYYADSVKGRFTISRDNAKNSLYLQMNSLRAEDTAVYYCARGGRLWWSPDYWGQGTLVTVSS
VL: DIVMTQSPDSLAVSLGERATINCKSSQSLLNSGNQKNYLTWYQQKPGQPPKLLIYWASTRESGVPDRFTGSGSGTDFTLTISSLQAEDVAVYYCQNDYSYPFTFGSGTKLEIKR
notes: also called VH-V111W; Kabat 99
B7 returned a Kd of 77.5 nM, a koff of 0.0112 s⁻¹ and a kon of 144000 M⁻¹ s⁻¹.

B8: H1.160_L1 (antibody, V domains shown)
VH: EVQLVESGGGLVQPGGSLRLSCAASGFTFSSFGMHWVRQAPGKGLEWVSYISSGSSIIYYADSVKGRFTISRDNAKNSLYLQMNSLRAEDTAVYYCARGGRLVWTPDYWGQGTLVTVSS
VL: DIVMTQSPDSLAVSLGERATINCKSSQSLLNSGNQKNYLTWYQQKPGQPPKLLIYWASTRESGVPDRFTGSGSGTDFTLTISSLQAEDVAVYYCQNDYSYPFTFGSGTKLEIKR
notes: also called VH-S113T; Kabat 100a
B8 showed a Kd of 90.7 nM, a koff of 0.00764 s⁻¹ and a kon of 84300 M⁻¹ s⁻¹.

B9: H1_L1.7 (antibody, V domains shown)
VH: EVQLVESGGGLVQPGGSLRLSCAASGFTFSSFGMHWVRQAPGKGLEWVSYISSGSSIIYYADSVKGRFTISRDNAKNSLYLQMNSLRAEDTAVYYCARGGRLVWSPDYWGQGTLVTVSS
VL: DIVMTQSPDSLAVSLGERATINCKSSQSLLGSGNQKNYLTWYQQKPGQPPKLLIYWASTRESGVPDRFTGSGSGTDFTLTISSLQAEDVAVYYCQNDYSYPFTFGSGTKLEIKR
notes: also called VL-N31G; Kabat 27d
With B9, binding was put at a Kd of 84.6 nM, the koff is 0.00875 s⁻¹ and the kon is 103000 M⁻¹ s⁻¹.

B10: H1.149_L1 (antibody, V domains shown)
VH: EVQLVESGGGLVQPGGSLRLSCAASGFTFSSFGMHWVRQAPGKGLEWVSYISSGSSIIYYADSVKGRFTISRDNAKNSLYLQMNSLRAEDTAVYYCARGGRLDWSPDYWGQGTLVTVSS
VL: DIVMTQSPDSLAVSLGERATINCKSSQSLLNSGNQKNYLTWYQQKPGQPPKLLIYWASTRESGVPDRFTGSGSGTDFTLTISSLQAEDVAVYYCQNDYSYPFTFGSGTKLEIKR
notes: also called VH-V111D; Kabat 99
Take B10: binding was put at a Kd of 116 nM, the koff is 0.0116 s⁻¹ and the kon was found to be 99700 M⁻¹ s⁻¹.

B11: H1_L1.5 (antibody, V domains shown)
VH: EVQLVESGGGLVQPGGSLRLSCAASGFTFSSFGMHWVRQAPGKGLEWVSYISSGSSIIYYADSVKGRFTISRDNAKNSLYLQMNSLRAEDTAVYYCARGGRLVWSPDYWGQGTLVTVSS
VL: DIVMTQSPDSLAVSLGERATINCKSSQSLLLSGNQKNYLTWYQQKPGQPPKLLIYWASTRESGVPDRFTGSGSGTDFTLTISSLQAEDVAVYYCQNDYSYPFTFGSGTKLEIKR
notes: also called VL-N31L; Kabat 27d
For the molecule B11, the Kd amounted to 32.9 nM, the koff stood at 0.00569 s⁻¹ and the kon amounted to 173000 M⁻¹ s⁻¹.

B12: H1_L1.2 (antibody, V domains shown)
VH: EVQLVESGGGLVQPGGSLRLSCAASGFTFSSFGMHWVRQAPGKGLEWVSYISSGSSIIYYADSVKGRFTISRDNAKNSLYLQMNSLRAEDTAVYYCARGGRLVWSPDYWGQGTLVTVSS
VL: DIVMTQSPDSLAVSLGERATINCKSSQSLLESGNQKNYLTWYQQKPGQPPKLLIYWASTRESGVPDRFTGSGSGTDFTLTISSLQAEDVAVYYCQNDYSYPFTFGSGTKLEIKR
notes: also called VL-N31E; Kabat 27d
B12: binding was characterised by a dissociation constant (Kd) of 152 nM, the dissociation rate constant (koff) amounted to 0.0228 s⁻¹ and the on-rate constant (kon) stood at 150000 M⁻¹ s⁻¹.

B13: H1.158_L1 (antibody, V domains shown)
VH: EVQLVESGGGLVQPGGSLRLSCAASGFTFSSFGMHWVRQAPGKGLEWVSYISSGSSIIYYADSVKGRFTISRDNAKNSLYLQMNSLRAEDTAVYYCARGGRLVESPDYWGQGTLVTVSS
VL: DIVMTQSPDSLAVSLGERATINCKSSQSLLNSGNQKNYLTWYQQKPGQPPKLLIYWASTRESGVPDRFTGSGSGTDFTLTISSLQAEDVAVYYCQNDYSYPFTFGSGTKLEIKR
notes: also called VH-W112E; Kabat 100; copies: 2 + 2
Take B13: the binding result is listed as “no binding”.

B14: H1.153_L1 (antibody, V domains shown)
VH: EVQLVESGGGLVQPGGSLRLSCAASGFTFSSFGMHWVRQAPGKGLEWVSYISSGSSIIYYADSVKGRFTISRDNAKNSLYLQMNSLRAEDTAVYYCARGGRLVYSPDYWGQGTLVTVSS
VL: DIVMTQSPDSLAVSLGERATINCKSSQSLLNSGNQKNYLTWYQQKPGQPPKLLIYWASTRESGVPDRFTGSGSGTDFTLTISSLQAEDVAVYYCQNDYSYPFTFGSGTKLEIKR
notes: also called VH-W112Y; Kabat 100; copies: 2 + 2
Consider B14, for which the binding result is on record as “no binding”.

B15: H1.150_L1 (antibody, V domains shown)
VH: EVQLVESGGGLVQPGGSLRLSCAASGFTFSSFGMHWVRQAPGKGLEWVSYISSGSSIIYYADSVKGRFTISRDNAKNSLYLQMNSLRAEDTAVYYCARGGRLKWSPDYWGQGTLVTVSS
VL: DIVMTQSPDSLAVSLGERATINCKSSQSLLNSGNQKNYLTWYQQKPGQPPKLLIYWASTRESGVPDRFTGSGSGTDFTLTISSLQAEDVAVYYCQNDYSYPFTFGSGTKLEIKR
notes: also called VH-V111K; Kabat 99
B15 returned a Kd of 60 nM, a koff of 0.00524 s⁻¹ and a kon of 87200 M⁻¹ s⁻¹.

B16: H1.157_L1 (antibody, V domains shown)
VH: EVQLVESGGGLVQPGGSLRLSCAASGFTFSSFGMHWVRQAPGKGLEWVSYISSGSSIIYYADSVKGRFTISRDNAKNSLYLQMNSLRAEDTAVYYCARGGRLVSSPDYWGQGTLVTVSS
VL: DIVMTQSPDSLAVSLGERATINCKSSQSLLNSGNQKNYLTWYQQKPGQPPKLLIYWASTRESGVPDRFTGSGSGTDFTLTISSLQAEDVAVYYCQNDYSYPFTFGSGTKLEIKR
notes: also called VH-W112S; Kabat 100; copies: 2 + 2
In the case of B16, the binding result is on record as “no binding”.

B17: H1_L1.6 (antibody, V domains shown)
VH: EVQLVESGGGLVQPGGSLRLSCAASGFTFSSFGMHWVRQAPGKGLEWVSYISSGSSIIYYADSVKGRFTISRDNAKNSLYLQMNSLRAEDTAVYYCARGGRLVWSPDYWGQGTLVTVSS
VL: DIVMTQSPDSLAVSLGERATINCKSSQSLLTSGNQKNYLTWYQQKPGQPPKLLIYWASTRESGVPDRFTGSGSGTDFTLTISSLQAEDVAVYYCQNDYSYPFTFGSGTKLEIKR
notes: also called VL-N31T; Kabat 27d
Regarding B17, binding was characterised by a dissociation constant (Kd) of 64.6 nM, the koff amounted to 0.00777 s⁻¹ and the kon came to 120000 M⁻¹ s⁻¹.

B18: H1_L1.8 (antibody, V domains shown)
VH: EVQLVESGGGLVQPGGSLRLSCAASGFTFSSFGMHWVRQAPGKGLEWVSYISSGSSIIYYADSVKGRFTISRDNAKNSLYLQMNSLRAEDTAVYYCARGGRLVWSPDYWGQGTLVTVSS
VL: DIVMTQSPDSLAVSLGERATINCKSSQSLLYSGNQKNYLTWYQQKPGQPPKLLIYWASTRESGVPDRFTGSGSGTDFTLTISSLQAEDVAVYYCQNDYSYPFTFGSGTKLEIKR
notes: also called VL-N31Y; Kabat 27d
For the molecule B18, the Kd is 307 nM, the koff stood at 0.0247 s⁻¹ and the kon was found to be 80600 M⁻¹ s⁻¹.

B19: H1.156_L1 (antibody, V domains shown)
VH: EVQLVESGGGLVQPGGSLRLSCAASGFTFSSFGMHWVRQAPGKGLEWVSYISSGSSIIYYADSVKGRFTISRDNAKNSLYLQMNSLRAEDTAVYYCARGGRLVQSPDYWGQGTLVTVSS
VL: DIVMTQSPDSLAVSLGERATINCKSSQSLLNSGNQKNYLTWYQQKPGQPPKLLIYWASTRESGVPDRFTGSGSGTDFTLTISSLQAEDVAVYYCQNDYSYPFTFGSGTKLEIKR
notes: also called VH-W112Q; Kabat 100; copies: 2 + 2
In the case of B19, the binding result is listed as “no binding”.
